1 substance from paper PMC3711486 can be followed below.

The target of the assay is unlabeled actin filaments (chicken skeletal muscle actin) (chicken) (UniProt P68139). Put plainly: other fluorescence titration.

As to “S. pombe Arp2/3 complex labeled with pyrene (pyrenyl-Arp2/3 complex) (from UniProt Q9UUJ1 1-390; O14241 1-317; Q92352 1-168)”, the KDR with filaments 10% saturated with cofilin is 0.66 µM, the KDR with filaments 20% saturated with cofilin is 0.87 µM, the KDR with filaments 30% saturated with cofilin worked out at 1.5 µM and the KDR with filaments 45% saturated with cofilin was 2.5 µM. Moreover, the percent of Arp2/3 complex bound, filaments more than 80% saturated with cofilin came out at 5%.
